# In patent US20200024330A1:
# What was measured:
# Assay in all cases: cell-based or functional assay
# [1] = biological target: HIV-1 MGRM-D-018 envelope glycoprotein (Env) on pseudovirus (HIV-1)
# [2] = biological target: HIV-1 92TH021 envelope glycoprotein (Env) on pseudovirus (HIV-1)
# [3] = biological target: HIV-1 92UG024 envelope glycoprotein (Env) on pseudovirus (HIV-1)
# [4] = biological target: HIV-1 Env of isolate 92TH021 (HIV-1)
# [5] = biological target: HIV-1 Env of isolate MGRM-C-026 (HIV-1)
# [6] = biological target: HIV-1 Env of isolate JRCSF (HIV-1) (UniProt P20871)
substance,measurement,setting,value
1496_C09 (PG9) (TCN-109) monoclonal antibody,"IC50, pseudovirus neutralization",[1],0.0444 µg/mL
same,"IC50, pseudovirus neutralization",[2],0.103 µg/mL
same,"IC50, pseudovirus neutralization",[3],1.91 µg/mL
PGT-132 (B cell culture well 5113_D22) (antibody),Primary Neutralization Index (B cell culture well 5113 D22),[4],51
same,Primary Neutralization Index (B cell culture well 5113 D22),[5],6
same,Primary Neutralization Index (B cell culture well 5113 D22),[6],3
PGT-133 (B cell culture well 5117_E22) (antibody),Primary Neutralization Index (B cell culture well 5117 E22),[4],42.5
same,Primary Neutralization Index (B cell culture well 5117 E22),[5],3.4
same,Primary Neutralization Index (B cell culture well 5117 E22),[6],3.6
